B1: RNAse: enzyme (Sigma) expected to digest intracellular RNA content (protein, UniProt P61823 27-150, looked up)
Ribonuclease pancreatic: KETAAAKFERQHMDSSTSAASSSNYCNQMMKSRNLTKDRCKPVNTFVHESLADVQAVCSQKNVACKNGQTNCYQSYSTMSITDCRETGSSKYPNCAYKTTQANKHIIVACEGNPYVPVHFDASV
B2: β-glucuronidase: enzyme (Sigma) detected by X-gluc histochemical staining (protein, UniProt P05804 1-603, looked up)
Beta-glucuronidase: MLRPVETPTREIKKLDGLWAFSLDRENCGIDQRWWESALQESRAIAVPGSFNDQFADADIRNYAGNVWYQREVFIPKGWAGQRIVLRFDAVTHYGKVWVNNQEVMEHQGGYTPFEADVTPYVIAGKSVRITVCVNNELNWQTIPPGMVITDENGKKKQSYFHDFFNYAGIHRSVMLYTTPNTWVDDITVVTHVAQDCNHASVDWQVVANGDVSVELRDADQQVVATGQGTSGTLQVVNPHLWQPGEGYLYELCVTAKSQTECDIYPLRVGIRSVAVKGEQFLINHKPFYFTGFGRHEDADLRGKGFDNVLMVHDHALMDWIGANSYRTSHYPYAEEMLDWADEHGIVVIDETAAVGFNLSLGIGFEAGNKPKELYSEEAVNGETQQAHLQAIKELIARDKNHPSVVMWSIANEPDTRPQGAREYFAPLAEATRKLDPTRPITCVNVMFCDAHTDTISDLFDVLCLNRYYGWYVQSGDLETAEKVLEKELLAWQEKLHQPIIITEYGVDTLAGLHSMYTDMWSEEYQCAWLDMYHRVFDRVSAVVGEQVWNFADFATSQGILRVGGNKKGIFTRDRKPKSAAFLLQKRWTGMNFGEKPQQGGKQ
B3: trypsin: enzyme (Sigma) expected to digest intracellular protein (protein, UniProt P00760 24-246, looked up)
Serine protease 1: IVGGYTCGANTVPYQVSLNSGYHFCGGSLINSQWVVSAAHCYKSGIQVRLGEDNINVVEGNEQFISASKSIVHPSYNSNTLNNDIMLIKLKSAASLNSRVASISLPTSCASAGTQCLISGWGNTKSSGTSYPDVLKCLKAPILSDSSCKSAYPGQITSNMFCAGYLEGGKDSCQGDSGGPVVCSGKLQGIVSWGSGCAQKNKPGVYTKVCNYVSWIKQTIASN

Tests used:
onion epidermis tissue [1] = test: Fluorescein diacetate staining, count of dead cells after bombardment; format: cell-based; settings: 200 μg trypsin or 40 μg RNAse per shot lyophilized onto 0.6 μm gold
Protocol: Onion epidermis tissues were submerged in 10 mL of MS liquid media to which 100 μL of a 5 mg mL^−1 of fluorescein diacetate (Alfa Aesar) solution in acetone were added. The samples were incubated for 2-5 minutes and directly observed under the green channel filter of the fluorescence microscope. For quantitative measurements, 12 images (10.5×8 mm) were taken with the 5× microscope objective scattered every 0.5 cm (4 columns×3 rows). The total amount of dead cells found on each image was counted.
The high concentration of protein used per shot (250 μg per shot) and the lyophilization process could cause cell death by: (1) physical damage of the potential clumps produced after lyophilizing protein and microparticles and (2) excess of intracellular protein delivery reaching toxic levels. To assess cellular death, onion epidermis tissues were stained with fluorescein diacetate, which stains in fluorescent green the living cells, while the dead ones remain dark (FIG. 7A). […]
As another example of active enzyme delivery, trypsin and RNAse A were chosen. […] The number of dead cells was measured using fluorescein diacetate staining in samples not bombarded, bombarded only with 0.6 μm gold or with 200 μg of trypsin or 40 μg of RNAse per shot. […]

onion epidermis tissue [2] = test: Biolistic delivery of molecules lyophilized onto 0.6 μm gold microcarriers to onion epidermis tissue; format: cell-based; settings: 275 μg per shot lyophilized onto 0.6 μm gold, one day after bombardment
Protocol: 2 μL of 0.6 μm gold particle stock was mixed with 1 μg of GFP plasmid pLMNC95 or 2 μL of a 400 ng/μL, TRITC-BSA solution. The mixture was poured on a macrocarrier, frozen in liquid nitrogen and freeze-dry for 1 hour prior to onion epidermis tissue bombardment.
Onion epidermis tissue was obtained from the scale leaves of white onion bulbs. Rectangular (3×2.5 cm) pieces were peeled right before the bombardment and placed in solid agar media (0.5 mM of 2-(N-morpholino)ethanesulfonic acid (MES), 15 g L^−1 Bacto agar (BD), pH 5.7) with the peeled side upwards. For quantitative measurements, epidermis pieces of the same scale leaf were distributed among treatments. Tobacco leaves (Nicotiana tabacum var. Petite Havana) were obtained from 3-6 week old in vitro grown plants on MS media (MS medium (Murashige and Skoog, 1962), 2% sucrose, 2.5 g L^−1 gelrite, pH 5.7). Leaves were cut right before bombardment and put with the adaxial surface up on agar media. Hill maize immature embryos were obtained from immature ears provided by the Center for Plant Transformation—Iowa State University. […]
Bright field and fluorescence images were taken using a Zeiss Axio star plus microscope. […] For the green channel fluorescence images a GFP BP filter (Chroma Technology Corp.) was used (λex=470 nm, beam splitter=495 nm and λem=525 nm). […]

[3] = test system: mouse ear pinna tissue cells; test: Delivery of active β-glucuronidase to mouse ear pinna tissue cells; format: cell-based, CD-1 mice; settings: 200 μg per shot air-dried with 90 μg 0.6 μm gold; 650 and 1100 psi; sixteen hours
Protocol: A mixture of 90 μg of 0.6 μm gold and 200 μg of β-glucuronidase per shot were air-dried onto the macrocarrier set for 2 hours. Ear pinnas of 8 week old CD-1 mice were dissected right after animals were euthanized. The tissues were disposed with the inner part of the ear upwards on an agar medium plate (FIG. 17A) and were immediately bombarded using the PDS-1000/He gene-gun at 650 psi or 1100 psi, 6 cm target distance and 28 mmHg vacuum. Samples were then soaked in X-gluc solution and incubated at 37° C. overnight. Sixteen hours later samples were examined under the microscope. […] Multiple gold particles (detected as dark dots) could be detected in different depths of the same cell (FIG. 17C). The localization of these blue cells in the bombarded tissue is the result of active β-glucuronidase protein delivery.

onion epidermis tissue [4] = test: Biolistic delivery of air-dried or freeze-dried protein or DNA, with or without 0.6 μm gold, to onion epidermis; format: cell-based
Protocol: Previously, protein and 0.6 μm gold projectiles were mixed and poured on top of a macrocarrier of the gene gun, frozen in liquid nitrogen, and lyophilized or freeze-dried. The same experiment was repeated by pouring the protein/0.6 μm gold mixture over a macrocarrier and leaving it to dry on top of a bench for 1 hour or overnight, termed “air-dried” (FIG. 10A). The experiment was done with two different proteins, β-glucuronidase and DS-RED2. Onion epidermis tissues were bombarded using these macrocarriers. An experiment was conducted using β-glucuronidase and DS-RED2, air-dried directly onto the macrocarriers without 0.6 μm gold projectiles (FIG. 10B). […] An experiment was conducted to compare DNA coating based on CaCl2/spermidine precipitation, freeze-drying or air-drying, and 0.6 μm gold particles. […] A DNA containing solution was freeze-dried or air-dried (without 0.6 μm gold projectiles) directly onto macrocarriers. Onion epidermis tissues were bombarded and 1 to 20 fluorescent cells could be observed (FIG. 15 and FIG. 16). Even though the number of cells that were transfected is much lower than when using 0.6 μm gold, protein can be delivered without the use of projectiles.

[5] = test system: onion epidermis cell tissues; test: Bombardment of onion epidermis with liquid protein solutions; format: cell-based; settings: liquid protein solution on macrocarrier; tissue damage was caused
From the text: As a control, β-glucuronidase and DS-RED2 protein solutions were poured over the macrocarrier and onion epidermis cell tissues were bombarded. […] However, the use of lesser volumes, less harsh gene-gun conditions or other liquid propelling methodologies may allow for protein delivery with less tissue damage.

onion epidermis tissues = test: Delivery of β-glucuronidase or plasmid DNA air dried onto tungsten particles to onion epidermis; format: cell-based; settings: 200 μg per shot air-dried onto M5 or M17 tungsten; 1100 psi/6 cm
Protocol: M5 (0.4 μm in size) and M17 (1.1 μm in size) tungsten particles from Bio-Rad were used. 100 μg of each type of particle and 200 μg of β-glucuronidase enzyme or 1 μg of GFP expressing plasmid pLMNC95 were used per shot. The suspensions were air dried for 2 hours onto the macrocarrier-set. Onion epidermis tissues were bombarded at 1100 psi/6 cm. Samples bombarded with β-glucuronidase were incubated overnight at 37° C. in X-gluc solution as previously described.

Molecule | dead cells compared with controls without the enzymes (indirect measurement of enzyme activity) (onion epidermis tissue [1]) | active enzyme delivery (blue cells after X-gluc staining) (onion epidermis tissue [2]) | active enzyme delivery (blue cells after X-gluc incubation) [3] | protein delivery after bombardment (onion epidermis tissue [4]; air-dried directly onto macrocarriers without 0.6 μm gold) | degradation when subjected to air drying (onion epidermis tissue [4]; air-dried on macrocarrier) | protein delivery after bombardment (onion epidermis tissue [4]; air-dried with 0.6 μm gold on macrocarrier for 1 hour or overnight) | protein delivery after bombardment [5] | active enzyme delivery (blue cells after X-gluc incubation) (onion epidermis tissues)
B1 | large amounts of dead cells |  |  |  |  |  |  | 
B2 |  | several blue cells could be observed | several blue cells were localized in the tissues | protein delivery also could be detected | not substantially degraded | protein delivery was achieved | no protein delivery was observed | several cells were showing blue coloration
B3 | large amounts of dead cells |  |  |  |  |  |  | 
